We go through 6 substances from patent publication US7108988B2, “Methods of identifying agents for inhibiting lentivirus replication” (priority 2001, dated 2006).

Test [1] addresses T1, CyPA (Homo sapiens, UniProt P62937).
T1 construct: purchased Sigma
As to the kind of experiment: Surface plasmon resonance (BIAcore) binding of Vpr peptides to immobilized recombinant CyPA. To be noted: 25° C.; for binding to CyPA: peptide 1 to 250 μM, immobilized recombinant CyPA. How it is done: Surface plasmon resonance biosensor analysis (BIAcore-Spectroscopy) was applied to analyze the molecular aspects that govern interaction of Vpr with CyPA. For the first experiment, a novel peptide comprising the first 40 residues of the Vpr protein derived from the isolate HIV-1NL4-3 was used to study the interaction with CyPA.
Surface plasmon resonance measurements were performed at 25° C. using a BIACORE 2000 (BIAcore AB, Upsala Sweden) equipped with a CM5 research-grade sensor chip. […] The peptide Vpr^1-40 was dissolved at concentrations ranging from 1 to 250 μM in a running buffer (10 mM Hepes, 150 mM NaCl, 50 μM EDTA, 0.005% Tween 20, pH 7.4) and was injected over the flow cells containing CyPA bound to the chip matrix at a flow rate of 5 μl/min. Data were collected at a rate of 2.5 Hz during the 120 s association and dissociation phase. Vpr^1-40 interactions reached equilibrium rapidly and dissociation completely within 30 seconds. Results were corrected by the RU-values of the reference cell (without CyPA) to exclude unspecific binding of Vpr to the chip matrix. The experiment was repeated at least three times with two different charges of peptide and CyPA and reproducible results were obtained.
Synthetic Vpr^1-40 and mutants carrying Pro to Asn exchanges at either amino acid positions 5, 10 and 14 (P^5,10,14 to N ) or at position 35 (P^35 to N) or at all four positions (P^5,10,14,35 to N) were purified to homogeneity, and tested for binding to immobilized recombinant CyPA using the same surface plasmon resonance biosensor system. […] Thus, among prolines at positions 5, 10, 14, and 35 of Vpr^1-40, only proline-35 is essential for binding to CyPA.
On the technique in general: SPR reads the build-up and loss of mass on a sensor chip optically.

Test [2] addresses T1, CyPA. The test can be described thus: Far-Western blot binding of Vpr to CyPA bound to nitrocellulose. How it is done:
Investigation of full length Vpr^1-96 was not possible by BIAcore as the full length Vpr protein tends to undergo self association and protein precipitation, that all together yielded false positive binding signals. As an alternative we investigated the binding of Vpr to CyPA bound to nitrocellulose.
For the purpose of Far-Western Blot technique, purified recombinant CyPA was separated in a 15% SDS PAGE at a concentration of ˜150 ng CyPA per lane. Proteins were electro transferred onto nitrocellulose and individual strips of this CyPA-containing Western blot were blocked for 4 hours with 3% BSA in TBS. Strips were then incubated for 12 hrs at 4° C. with the peptide Vpr^1-96 at a concentration of 1 μg/ml, CyPA strips were incubated either in the absence of any detergent, or under more stringent conditions in TBS/T containing 0.5% Triton X100™ non-ionic detergent. Finally, strips were washed tree times in TBS/T for 10 minutes and bound Vpr was identified with anti-Vpr^1-96 (polyclonal antibodies raised in rabbits) followed by anti-rabbit IgG horse radish peroxidase (HRP) conjugate and enhanced chemiluminescence (ECL) staining. As a control, the CypA binding protein, HIV-1 capsid p24 was tested in parallel.

Test [3] deals with T1, CyPA. The test can be described thus: In vitro CyPA/Vpr complex formation, non-reducing SDS-PAGE and Western blot. The test is classed as binding. From the text:
[…] Proteins were separated on a 14% polyacrylamide gel in SDS (without reducing agents), by PAGE. Proteins were detected by Western blotting after transfer of the proteins from the gel to membranes. CyPA and Vpr proteins were detected using anti-Vpr and anti-CyPA antibodies (Calbiochem).

T1 sequence (P62937 whole entry): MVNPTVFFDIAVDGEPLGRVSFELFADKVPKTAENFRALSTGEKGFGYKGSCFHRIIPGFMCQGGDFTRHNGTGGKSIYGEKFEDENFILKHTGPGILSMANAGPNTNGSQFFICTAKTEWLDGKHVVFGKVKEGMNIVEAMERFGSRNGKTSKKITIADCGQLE

With “P^5,10,14 to N (MEQANEDQGNQRENHNEWTL; Vpr 1-20; UniProt P69725 1-20, looked up, variant P5N P10N P14N)”, the “binding to CyPA” value in the test with CyPA [1] was “retained dose-dependent binding to CyPA”. On the same count and under the same terms, then “Pro-35 to Asn of Vpr^21-40: Vpr^21-40 with Pro-35 mutated to Asn”, with “complete loss of CyPA binding”; and “Vpr^1-20: very N-terminal fragment of Vpr”, with “did not bind to CyPA”.

In the case of “Vpr^1-40: peptide comprising the first 40 residues of the Vpr protein derived from the isolate HIV-1NL4-3”, in the test with CyPA [1], the “time to complete dissociation from CyPA” value was at most 30 s and the “binding to CyPA” value was “concentration dependent binding to CyPA”. Take Vpr^1-96: full length Vpr peptide: the “binding to CyPA (Far-Western)” value is “binds to CyPA” with CyPA [2] (1 μg/ml peptide, absence of detergent); “low affinity” in the test with CyPA [2] (presence of 0.5% TritonX100 non-ionic detergent); “reduced” with CyPA [2] (presence of 0.5% TritonX100 non-ionic detergent, listed as Vpr). Further, the “complex formation with CyPA” value was “formation of a novel approximately 29 kDa product” with CyPA [3] (1 μg each, 22° C., 12 hours, no reducing agent) and “loss of the Vpr/CyPA complex” with CyPA [3] (with reducing agent (β-mercaptoethanol)). In the case of Vpr^21-40: smaller fragment of Vpr, the “binding to CyPA” value with CyPA [1] is “strong and dose-dependent binding to CyPA”.
